# Test results as given in PMC11783328.
# B1: 21N13 Fab (Fab, V domains shown)
# VH: QVQLQESGPGRVKPSETLSLTCAVSDDSFGSSYFYWSWIRQAPGKGLEWIGYIAYSGGVRYNPSLSSRVTISRNIHERQFYLRLTSMTAADTAVYYCARHCEDDYGYYSAAQSYGLDSWGQGIAVTVSP
# VL: DIQMTQSPSSLSASVGDRVTITCRTSENVNNCLNWYQQKPGKAPKLLIYRTSTLQRGVPSRFSGTGSGTDYTLTISSLQSEDFGTYYCQHYYGTPLTFGGGTMVDIK
# B2: 21M20 Fab (Fab, V domains shown)
# VH: EVQLVESGGGLAKPGGSLRLSCAASGFTFSRSIMHWVRQAPGKGLEWVSTINYAGSTYYADSVRGRFVISRDNSKNTLSLQMNSVRPEDRAVYHCAKDKEGYYSGGYPLWYFDLWGPGTPVTISS
# VL: DVQMTQSPSSLSASVGDKVSITCRASQGIADALAWYQQKPGKAPKLLIYGASNLESGVPSRFSGSGSGTDFSLTISSLQAEDFAVYYCQQRNSHPPTFGQGTRVEVK
# Tests used:
# [1] = target: BG505 SOSIP.v4.1 GT1.1 trimer (BG505 SOSIP germline trimer 1.1) (HIV-1 (isolate BG505)) (UniProt Q2N0S6); experiment: cryo-EM structure
# [2] = target: BG505 SOSIP.v4.1-GT1.1 (HIV-1 (isolate BG505)) (UniProt Q2N0S6); experiment: cryo-EM structure
Binder,stoichiometry N [1],stoichiometry N (Ab:Env trimer) [2]
B1,3,
B2,,1
